# Experiments:
# [1] = target: CD20 (human (endogenous in Ramos)) (UniProt P11836)
# [2] = target: CD20 (human (endogenous in Ramos)) (UniProt P11836); remark: listed apart in the source
# [3] = target: CD20 (human (endogenous in Ramos)) (UniProt P11836); experiment: flow cytometry on cells; 1E6 Ramos cells incubated with 0.5μg (16.7nM) or 1μg (33.3nM) of the RTX variant (non-saturating amounts); bound antibody detected with FITC murine monoclonal anti human kappa light chain antibody; read-out: MFI of the variant divided by MFI of the IgG1 control
# UniProt P11836, sequence (P11836 whole entry): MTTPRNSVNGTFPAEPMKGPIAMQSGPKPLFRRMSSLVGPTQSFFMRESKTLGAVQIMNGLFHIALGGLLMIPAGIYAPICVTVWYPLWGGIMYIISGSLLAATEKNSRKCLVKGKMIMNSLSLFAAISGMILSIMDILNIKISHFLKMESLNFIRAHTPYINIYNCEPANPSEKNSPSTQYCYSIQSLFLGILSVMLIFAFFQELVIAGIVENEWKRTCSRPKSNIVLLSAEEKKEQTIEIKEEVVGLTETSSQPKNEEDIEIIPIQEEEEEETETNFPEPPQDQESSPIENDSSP
"apoptosis of Ramos cells after 24h (AnnexinV-FITC positive cells, absolute), 2000ng antibody, no crosslinker [1]","apoptosis of Ramos cells after 24h, normalised to the IgG1 control without crosslinker (100%) (% of IgG1 control) [2]",IgG1 signal ratio (MFI of RTX variant divided by MFI of IgG1 control) at 0.5μg [3],IgG1 signal ratio (MFI of RTX variant divided by MFI of IgG1 control) at 1μg [3],Substance
11 % of cells,,,,Rituximab IgG1 a1 (antibody)
49 % of cells,546,0.37,0.42,Rituximab IgG2 (antibody)
41 % of cells,441,,,Rituximab IgG4P (antibody)
